Test results: the nanobody polyreactivity screen of Harvey et al. (2022)

Experiment: yeast display, Sf9 membrane polyspecificity reagent, FACS + sequencing; frameworks hold sequencing errors
Method in brief: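 Synthetic nanobody libraries on Saccharomyces cerevisiae BJ5465 were galactose-induced for 36–48 hours, stained 1 hour at 4 °C with 10% biotinylated, detergent-solubilized Sf9 membrane reagent and enriched on streptavidin microbeads. FACS then separated cells into low and high (top ~1%) gates by anti-HA (expression) and streptavidin (reagent binding) fluorescence. Genes were colony-PCR amplified, MiSeq 2 × 250 sequenced and CDR-length filtered. A clone's polyreactivity label is that of its gate of origin.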

Sequence	polyreactivity (PSR sort gate)
QVQLVESGGGLVQAGGSLRLSCAASGLTFSSYTMGWYRQAPGKERELVAAISSGGSTYYADSVKGRFTISRDNAKNTVYLQMNSLKPEDTAVYYCAAAFRYTPLSDHGYWGQGTQVTVSS	high polyreactivity
QVQLQESGAGLDQAGGSLRLSCAPSGYISDIGTMGWYRQAPGKEREFVATIVVGSTTNYADSVKGRFTISRDNAKNTVYLQPESGRYRGVVLRGWLLAVGKFTYWGQGTQETVSS	low polyreactivity
QVQLVESGGGLVQAGGSLRLSCAASGSTFTWYAMGWYRQAPGKEGELVAAISRGGSTNYADSVKGRFTISRDNAKNTVYLQMNSLKPEDTAVYYCAAESYWRDDYWGQGTQVTVSS	low polyreactivity
QVQLVESGGGLVQAGGSLRLSCAASGLTFYKNAMGWYRQAPGKEKELVAAISDSGGSTYYADSVKGRFTISRDNAKNTVYLQMNSLKPEDTAVCYCNARRRVYYKGFDYWGQGTQVTVSS	high polyreactivity
QVQLVESGGGLVQAGGSLRLSCAASGGTFLNYAMGWYRQAPGKECELVAVITNGDSTYYADSVKGRFTISRDNAKNTVYLQMNSLKPEDTAVYYCNADDWGQYNIWYDYWGQGTQVTVSS	low polyreactivity
QVQLVESGGGLVQAGGSLRLSCAASGSTFYWYTMGWYRQAPGKERELVATINYSGGSTYYADSVKGRFTISRDNAKNTVYLQMNSLKPEDTAVYYCNKQVYVGWGSDYWGQGTQVTVSS	low polyreactivity
QVQLVESGGGLVQAGGSLRLSCAASGSTFLLNAMGWYRQAPGKERELVAAITSSGGTNYADSVKGRFTISRDNAKNTVYLQMISLKPEDTAVYYCNTRYSPGYQGTEVDYWGQGTQVTVSS	low polyreactivity
QVQLVESGGGLVQAGGSLRLSCAASGLIFTDYDMGWYRQAPGKERELVAAISTSGGSTYYADSVKGRFTISRDNAKNPVYLQMNSLKPAETAVYYCAAEYVYPYWNGFDYWGQGTQVTVSS	low polyreactivity
QVQLVESGGRLVKAGGSLRLSCAASGRTFSSYAMGWYRHAPGKERELVAAISSGGSTYYADSVKGRFTISRDNAKNTVYILMNSQIPEDTAVYYCNRRLYYKIGRGFSYYWGQGTQVTVSS	high polyreactivity
QVQLVESGGGLVQAGGSLRLSCAASGRIFNVYAMGWYRQAPGKERELVASITSAGSTYYADSVKGRFTISRDNAKNTVYLQMNSLKPEDTPVYDCAADSYSVYYYTYDSWGQGTQVTVSS	low polyreactivity
QVQLVESGAGLVQAGGRLRLSCAASGSIFWRYAMGWSIQAPGKERELVAAINYSTTRTYYADSVKGRFTISRDNAKNTVYLQMNSLKPVDTAVYYCAADSRVDEGEYWGQGTQVTVSS	high polyreactivity
QVQLVESGGGLVQAGGSLRLSCAASGRTFYSNAMGWYRQAAGKERELVAAISYNDGSTYYADSVKGRFTITRDNAKNTVYLQMNSLKPEDTAVYACNADVGAWAWYTRYDYWGQGTQVTVSS	low polyreactivity
QVQLVESGGGLVQAGGSLRLSCAASGRIFNVNALGWYRQAPGKERELVAAINWSGGRTYYADSVKGRFTISRDNAKNTVYLQLNSLKPEDTAVYYCAADTRYPYRAYDYWGQGTQVTVAS	high polyreactivity
QVQLVESGGGLVQAGGSLRLSCDASGRSSVSMLMVWYRQAPGKERELVARITGSGGSTYYADSVKGRFTISRDNAKNTVYLQMNSLKPEDTAVYYCAARYLWRGRYNYWGQGTQVTVSS	high polyreactivity
QVQLVESGGGLVQAGGSLRLICAASGFTFDFYAMGWYRQAPGKERELVATISYSGASTYYADSVKGRFTISRDNAKNTVYLEMNSLKPEVTAVYYCAAYYPTRYQYGTIWVAYNYWGQGTQVTVSS	low polyreactivity
QVQLVESGGGLVQAGGSLRLSCAASGRTFYYNVMGWYRQAPGKERELVAAISTGVSTNYADSVKGRFTISRDNAKNTVYLQMNSLKPEDTAVYYCNARSYRWYRPVYRYDYWGQGTQVNVSS	high polyreactivity
QVHLVESGGGLVQAGGSLRLSCSASGSIFAINVMGWYRQAPGKEREFVAAITWSGGSTYYADSVKGRVTISRDNAKNTVYLQMFSLKPEDTAVYYCNARYPYKRRDYDYWGQGTQVTVSS	high polyreactivity
KVQLVESGGGLVQAGGSLRLSCAASGRIFKYYAMGWYRQAPGKEMELVARISRSSGNTYYADSVKGRFTISRDNAKKTVYLQMNSLIPEDTAVYYCATVPHYNGFNYWGQGTQVTVSS	high polyreactivity
QVQLVESGGGLVQAGGSLRLSCAASGIIFWHYAMGRYIQAPGKERELVADISRRGGSTYYADSVKGRFTISRDNAKNTVYLQMNSLKPVDTAVYYCAARYHPGGYDSWGQGTQVTVSS	low polyreactivity
QVQLVESGGGLVQAGGSLRLSCAASGSIFRYYAMGWYRQAPGKERELVAAISGSGASTYYADSVKGRFTISRDNAKNTVYLQMNSLKPEDTEVYFCAAYRGPRHHYPSVYNWGYDYWGQGTQVTVSS	high polyreactivity
QVQLVESGGGLVQAGGSHRLSCAASGYIFDYNDMGWSRQAPGKERELVAAITYSRGSTYYADSVKGRFTISRDNAKNTVYLQMNSLQPEDTAVYYCAATFRSRGYSARRYYYWGQGTQVTVST	high polyreactivity
QVQLVESGGGLVEAGGSLRLSCAASGRIFVHNAMGWYRHAPGKERELVAVITYSGGRTYYADSVKGRFTISRDNAKNTVYLQMNSLKPEDTAVYYCAVRAYKVSRYYYWGQGTLVTVSS	low polyreactivity

Sequence	polyreactivity (PSR sort gate)
QVQLVESGGGLVQAGGSLRLSCGASGSIFWVYAMGWYRQAPGKERELVAAISNSGSTNYADSVKGRFTISRDNAKNTVYLQMNSLKPADTAVYYCAKDSLVDHVGGYDYWGQGTQVTVSS	low polyreactivity
QVQLVESGGGIVQAGGSLRLSCAASGRIVRNYAMGWYRQAPGKERELVAGITRGGRTNYAHSVKGRFTISRDNAKNTVYLQMNSLKPEDTAVYYCNKVSSFGYYYWGQGTQVTVSS	high polyreactivity
QGQLVESGGGLVQAGGSLRLSSAASGRTFPSYAMGWYRQAPGKERELVAAITVSGGNTYYADSVKGRFTISRDNAKNTVYLQMNSLKAEDTAVYYCNTASYVSWYVHYYYWGLGTQVTVSS	low polyreactivity
QVQLVESGGGLVQAGGSLRLSCAASGRIFSFYAMGWYRQAPGKERELVATISDGGATTYYADSVKGRFTISRDNAKNTVYLQMNSLKPEDTAVYYCNARRESYYQRYRVDYWGQGTQVTVSS	low polyreactivity
QVQIVESGGGLVQAGGSLRLSCAASGIIFYRYAMGWSRQAPGKERELVAAITWSGVSTSYADSVKGRFTISRDNAKNTVYLQMNSLKPEVTAVYDCNKDPGTLYGDMDSWGQGTQVSVSS	low polyreactivity
QVQLVESGGGLVQAGGSLRLICAASGSTFEHYAMGWYRPAPGKERELVAAITRRGGSTYYADSVKGRFTISRDNAKNTVYLQMNSLKPEDTAVYDCNTDLRYSYYLPGYDYWGQGPQVTVSS	high polyreactivity
QVQLVESGGGLVQAGGSLRVSCAASGYTFKHYTMGWYREAPGKERELVATISIRGGNTSYADSVKGRFTISRDTAKNTVYLQMNSLKPEDTAVYYCAARSVNAPPRYRQKAGYDYWGQGTQETVSS	high polyreactivity
QVQLVESGGGLVQAGGSLRLSSAASGSIFDKNAMGWYRQAPGKERELVAAIRRTSTTYYADSVKGRFTISRDNAKNTVFLKMNSLKPEDTAVYYCAATYGSGYWYPRYYYWGQGTEVTVSS	high polyreactivity
QVQLVESGGGLVQAGGSLRLSCAASGSTFGDNAMGWYRQAPGKEREFVAAITTSGTSTYYADSVKGRFTISRDNAKNTVYVQMNSLKPEDTAVYYCAAYSRAAAGFYSSRRDYYWGQGTQVTVSS	low polyreactivity
QVQLVESGVGLVQAGGSLRLSCASSGYTFFYYSMGWYRQAPGKEREFVAAISTGTGSTYYADSVKGRFTISRDNAKNTVYLQMNSLKPEDTAVYYCAADGTLYYFGLEYDYWGQGTQVTVSS	low polyreactivity
QVQLGESGGGLVQAGGSLGLSCAASGGTLRVNTMGWYRQAPGKERELVAAISTRSGRTYYADSVKGRFTISRDNAKYTVYLQMNSLKPEDTAVYYCAATLYRRRSAFDGDWGQGTQVTVSS	high polyreactivity
QVQLVESGGGLVQAGGSLRLSCAATGIIFGTYAMGWYLQAPGTERELVAVISWRGGTYADSVKRRFTISRDNAKNTVYLQMNSLKPEDSAVYYCNARTWARLGSYWWIVDSWGQGTQVTVSS	high polyreactivity
QVQLVESGGGLDQAGGSLRLSCAASGFIYWYYAMGWYRQAPVKERELVAAITRGGSTNYADSVKGRFTISRDNAKNTVYFQKNRLKPEDTSVYYCNASWRLVSSGFDGGYWGEGTQVTVSS	high polyreactivity
QVKLVESAVRLVQAGGSLRLSCAASASTLYRYSMGLYRQAPGKERELVAAISSSGGSSYYADSVKGRFTISRDNAKNTVYLQMNRLKQEDTAVYYCSAAALRTIGAGYRYGNWGQGTQVTVSS	high polyreactivity
QVQLVESGGGLVQAGGSLRLSCAASGIIFTVYVMGWYRQAPGKERELVAGITFSTSSTYYADSVKGRFTISRDNAKNTVYLQMNSLKPEDTAVYYCNKDALQTAFDYWGQGTQVTVSS	low polyreactivity
QVQLVESGGGLVQAGGSLRISCASSGSIFVINAMGWYRQAPGKERELVAAIDWGGDTTYYADSVKGRFTISRDNAKITVYLQMNSLKPEDTAVYYCAADLFLWYEFEYWGQGTQVTVSS	high polyreactivity
QVQLVESGGGLVQAGGSLRLSCAASGSNFTNYAMGWYRPAPGKERELVARITSSGSRTYYADSVKGRFTISRDNAKNTVYLQMNSLKPEDTAVYYCNAETYYLRYGRGYRRFDYWGQGTQVTVSS	high polyreactivity
QVQLVESGGGLVQAGGSLRLSCAASGRIFTSYTMGWYRQAPGKERELVAAISASGASTYYADSVKGRFTISRDNAKNTVYLQMNSLKPEDSAVYYCATVRPRERRGYWGQGTQVTVSS	high polyreactivity
QVQLVESGGGLVQAGGSLRLSCAASGIIFPFYVMGWYRQAPGKERELVAAITWSGDGTYYADSVKGRFTISRDNAKNTVYLQMNSLKPEDTAVYYCAAQWYYGGVKYYYWGQGTQVTVSS	low polyreactivity
QVQLVESGGGLVQAGGSLRFSCAASGGIFWYNAMGWYRQAPGKERELVAAISASTGSTYYADSVKGRFTISRDNAKNTVYLQMNSLKPEDTAVYYCAATRYRSARYAYGHWGQGTQVTVSS	high polyreactivity
QVQLVESGGGLVQAGGSLRLSCAASGSTFYRNAMGWYRQARGKERELVAAISRGGSTYYADSVKGRFTISRDNAKNTVYLQMNSLKPEDTAVYYCNTDVNYAGYGWYYYWGQGTQVTVSS	high polyreactivity
